Experiment [1] concerns the target T1, Aβ in APPPS1-21 mouse brain (from the human APP transgene bearing the Swedish mutation) (human (transgene in mouse), UniProt P05067 672-713).
T1 construct: also called methoxy-X04+ Aβ plaque
Nature of the experiment: proximity ligation assay (PLA) on APPPS1-21 mouse brain sections.

Experiment [2] concerns the target T2, C1q (mouse, in APPPS1-21 and WT mouse brain cortex sections) (mouse, UniProt P98086 23-245; P14106 26-253; Q02105 30-246).
T2 construct: Endogenous tissue protein detected with mouse anti-C1q (HM1096BT, Hycult)
Put plainly: proximity ligation assay (Duolink PLA) on brain cortex sections of 16 weeks old APPPS1-21 mice. The method, then: Protein-protein binding ex vivo was performed by Duolink® PLA kit (DUO92101 SIGMA).
PLA signal was detected by Duolink® PLA kit according to manufacturer's protocol. Leica confocal microscope (SP8, Leica, Germany) equipped with a 100× oil objective (NA 1.4) were used for image. 6 fields per each sample were recorded, 3D reconstructions and the number of PLA signals per volume were performed using LAS-X software package (Leica, v1.2, Germany).
APPPS1-21 mice were treated with the liver-specific C5 siRNA AD-61679.

T2 sequence (P98086 23-245 limits assumed, chain 1 of 3): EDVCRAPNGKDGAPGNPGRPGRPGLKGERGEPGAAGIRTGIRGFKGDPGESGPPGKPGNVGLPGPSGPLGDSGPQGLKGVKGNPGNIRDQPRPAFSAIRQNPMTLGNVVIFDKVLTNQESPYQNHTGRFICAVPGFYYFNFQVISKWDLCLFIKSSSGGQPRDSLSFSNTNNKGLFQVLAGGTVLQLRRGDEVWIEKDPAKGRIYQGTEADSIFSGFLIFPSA
T2 sequence (P14106 26-253 limits assumed, chain 2 of 3): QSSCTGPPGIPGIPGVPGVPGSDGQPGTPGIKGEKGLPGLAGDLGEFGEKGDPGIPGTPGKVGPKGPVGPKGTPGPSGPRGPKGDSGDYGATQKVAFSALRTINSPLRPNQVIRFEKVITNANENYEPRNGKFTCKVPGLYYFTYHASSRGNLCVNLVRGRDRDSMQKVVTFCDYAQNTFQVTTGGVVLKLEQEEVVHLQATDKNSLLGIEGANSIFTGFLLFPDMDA
T2 sequence (Q02105 30-246 limits assumed, chain 3 of 3): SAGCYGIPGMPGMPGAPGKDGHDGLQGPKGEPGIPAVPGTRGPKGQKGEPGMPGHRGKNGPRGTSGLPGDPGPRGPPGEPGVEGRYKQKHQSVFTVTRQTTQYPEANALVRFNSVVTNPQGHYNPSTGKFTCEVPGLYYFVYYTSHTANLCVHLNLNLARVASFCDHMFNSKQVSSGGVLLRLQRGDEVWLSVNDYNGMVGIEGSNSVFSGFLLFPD
T1 sequence (P05067 672-713 limits assumed, change not shown): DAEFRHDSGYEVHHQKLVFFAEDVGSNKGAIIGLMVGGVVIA

B1: apolipoprotein E (mouse, in APPPS1-21 and WT mouse brain cortex sections) (other, UniProt P08226 19-311, looked up)
chain: EGEPEVTDQLEWQSNQPWEQALNRFWDYLRWVQTLSDQVQEELQSSQVTQELTALMEDTMTEVKAYKKELEEQLGPVAEETRARLGKEVQAAQARLGADMEDLRNRLGQYRNEVHTMLGQSTEEIRARLSTHLRKMRKRLMRDAEDLQKRLAVYKAGAREGAERGVSAIRERLGPLVEQGRQRTANLGAGAAQPLRDRAQAFGDRIRGRLEEVGNQARDRLEEVREHMEEVRSKMEEQTQQIRLQAEIFQARLKGWFEPIVEDMHRQWANLMEKIQASVATNPIITPVAQENQ
notes: Detected with rabbit anti-mouse ApoE (ab183597); also called ApoE
For the molecule B1, the binding result in experiment [1] and in experiment [2] was “binds” throughout.

(Values after patent publication US20250197855A1 (ALNYLAM PHARMACEUTICALS, published 2025).)
